Laboratory results as given in US7897569B2, “Use of HMGB fragments as anti-inflammatory agents” (The Feinstein Institute for Medical Research, priority 2001, dated 2011).
Each block holds one molecule with its values, some of them ahead of it.

Tests used:
[1] = system: NF-kB-dependent ELAM promoter; experiment: NF-kB-dependent ELAM promoter luciferase reporter in RAW 264.7 macrophages; assay type: cell-based, murine; settings: HMGB1 100 ng/ml or B box 10 μg/ml, 5 hours; for level of luciferase stimulation: co-transfected with MyD 88 dominant negative
Procedure: To examine the effects of HMGB1 or HMGB1 B Box on the NF-kB-dependent ELAM promoter, the following experiment was carried out. RAW 264.7 macrophages were transiently co-transfected with an expression plasmid encoding a murine MyD 88-dominant-negative (DN) mutant (corresponding to amino acids 146-296), or empty vector, plus a luciferase reporter plasmid under the control of the NF-kB-dependent ELAM promoter, as described by Means et al. (J. Immunol. 166:4074-4082, 2001). A portion of the cells were then stimulated with full-length HMBG1 (100 ng/ml), or purified HMGB1 B box (10 μg/ml), for 5 hours. Cells were then harvested and luciferase activity was measured, using standard methods. All transfections were performed in triplicate, repeated at least three times, and a single representative experiment is shown in FIG. 11B.

[2] = molecular target: T1, human Toll-like receptor 4 (TLR4) (Homo sapiens, UniProt O00206); experiment: CD25 expression in CHO/TLR2 and CHO/TLR4 ELAM-CD25 reporter cells (flow cytometry); assay type: cell-based; settings: CHO/TLR4 cells versus CHO/TLR2; HMG-1 100 ng/ml or B box 10 μg/ml, 18 hours
T1 construct: expressed in transfected cells; host or cells: CHO (CHO/TLR4, ELAM-CD25 reporter)
Procedure: The effect of HMGB1 or HMGB1 B box on NF-kB activation was also examined. CHO reporter cell lines that constitutively express human Toll-like receptor 2 (TLR2) or Toll-like receptor 4 (TLR4) have been previously described (Means et al., J. Immunology, 163:3920-3927, 1999). These reporter lines also contain a stably transfected ELAM-CD25 reporter gene, and express human CD25 on their surface as a consequence of NF-kB activation. CHO/TLR2 and CHO/TLR4 cells were stimulated with IL-1 (10 ng/ml), purified full-length HMG-1 (100 ng/ml), or purified B box (10 μg/ml) for 18 hours. Following stimulation, cells were stained with a PE-labeled anti-CD25 monoclonal antibody and surface expression of CD25 was measured by flow cytometry. The results of this study are shown ib FIG. 11C. Data are expressed as the ratio (fold-activation) of the percent of CD25^+ cells in unstimulated and stimulated cell populations that were gated to exclude the lowest 5% of cells based on mean FL1 fluorescence.

RAW 264.7 cells = experiment: 125I-HMGB1 cell surface binding to RAW 264.7 cells; design: species or system murine; settings: 4° C.
Procedure: Purified HMGB1 protein (10 μg) was radiolabeled with 0.2 mCi of carrier-free ^125I (NEN Life Science products Inc., Boston, Mass.) using Iodo-beads (Pierce, Rockford, Ill.) according to the manufacturer's instructions. ^125I-HMGB1 protein was separated from un-reacted ^125I by gel chromatography columns (P6 Micro Bio-Spin Chromatography Columns, Bio-Rad Laboratories, Hercules, Calif.) previously equilibrated with 300 mM sodium chloride, 17.5 mM sodium citrate, pH 7.0 and 0.1% bovine serum albumin (BSA). The specific activity of the eluted HMGB1 was about 2.8×10^6 cpm/μg protein. […] The radioactivity in the lysate was then measured using a gamma counter. Specific binding was determined as total binding minus the radioactivity obtained in the presence of an excess amount of unlabeled HMGB1 or A box proteins.
To determine whether the HMGB1 A box acts as an antagonist by displacing HMGB1 binding, ^125I-labeled-HMGB1 was added to macrophage cultures and binding was measured at 4° C. after 2 hours. […] The specificity of binding was assessed as described in Example 1.
In addition, ^125I-HMG-1 binding was measured in RAW 264.7 cells plated on 24-well dishes and incubated with ^125I HMGB1 alone or in the presence of unlabeled HMGB1 or A box. […] The data are expressed as the percent of total counts obtained in the absence of unlabeled HMGB1 proteins (2,382,179 CPM/well).

T1 sequence (O00206 24-839): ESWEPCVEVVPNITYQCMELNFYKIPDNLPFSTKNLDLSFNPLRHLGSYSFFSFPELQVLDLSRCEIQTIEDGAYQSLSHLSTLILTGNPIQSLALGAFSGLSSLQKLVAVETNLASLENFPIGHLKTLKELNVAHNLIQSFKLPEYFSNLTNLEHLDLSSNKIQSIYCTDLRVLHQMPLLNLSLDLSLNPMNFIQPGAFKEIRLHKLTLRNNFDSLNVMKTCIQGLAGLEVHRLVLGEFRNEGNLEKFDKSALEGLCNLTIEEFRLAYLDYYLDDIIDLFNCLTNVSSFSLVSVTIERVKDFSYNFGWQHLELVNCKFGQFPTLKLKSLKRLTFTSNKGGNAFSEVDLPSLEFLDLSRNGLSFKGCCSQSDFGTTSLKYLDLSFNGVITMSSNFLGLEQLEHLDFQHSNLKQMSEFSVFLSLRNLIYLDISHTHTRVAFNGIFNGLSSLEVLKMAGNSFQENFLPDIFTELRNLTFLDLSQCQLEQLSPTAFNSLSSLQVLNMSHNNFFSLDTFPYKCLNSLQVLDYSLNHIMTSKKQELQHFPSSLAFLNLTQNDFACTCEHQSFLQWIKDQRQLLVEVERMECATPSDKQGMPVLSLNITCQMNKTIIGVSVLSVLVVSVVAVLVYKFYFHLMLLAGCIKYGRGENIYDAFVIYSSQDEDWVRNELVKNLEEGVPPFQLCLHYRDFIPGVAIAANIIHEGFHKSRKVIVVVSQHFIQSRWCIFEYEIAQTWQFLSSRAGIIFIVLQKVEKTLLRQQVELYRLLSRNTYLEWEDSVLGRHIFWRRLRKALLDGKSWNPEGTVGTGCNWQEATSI

B1: B box: Human HMGB1 mutant containing only the B box, SEQ ID NO:20 (protein)
chain: FKDPNAPKRLPSAFFLFCSEYRPKIKGEHPGLSIGDVAKKLGEMWNNTAADDKQPYEKKAAKLKEKYEKDIAAY
- level of luciferase stimulation [1]: This effect was also observed
- CD25 expression [2]: decreased CD25 expression compared to the CHO/TLR2 samples

- level of luciferase stimulation [1]: decreased
- luciferase activity ([1]; not co-transfected with MyD 88 dominant negative): stimulated luciferase activity
B2: HMGB1: Recombinant full length human HMGB1, GST fusion system, SEQ ID NO:18; recombinant rat HMGB1 used in some experiments (protein)
chain: MGKGDPKKPTGKMSSYAFFVQTCREEHKKKHPDASVNFSEFSKKCSERWKTMSAKEKGKFEDMAKADKARYEREMKTYIPPKGETKKKFKDPNAPKRLPSAFFLFCSEYRPKIKGEHPGLSIGDVAKKLGEMWNNTAADDKQPYEKKAAKLKEKYEKDIAAYRAKGKPDAAKKGVVKAEKSKKKKEEEEDEEDEEDEEEEEDEEDEEDEEEDDDDE
modifications: GST fusion
notes: recombinant rat HMGB1 used in some experiments
- 125I-HMGB1 binding kinetics (RAW 264.7 cells; RAW 264.7 cells): saturable first order binding kinetics
- CD25 expression [2]: decreased CD25 expression compared to the CHO/TLR2 samples

B3: A box: Human HMGB1 mutant containing only the A box, SEQ ID NO:21 (A box SEQ ID NO:22) (protein)
chain: MGKGDPKKPTGKMSSYAFFVQTCREEHKKKHPDASVNFSEFSKKCSERWKTMSAKEKGKFEDMAKADKARYEREMKTYIPPKGET
- displacement of 125I-HMGB1 binding (RAW 264.7 cells; 5,000 molar excess unlabeled A box, 2 hours): competitive antagonist of HMGB1 activity in vitro
